Test results as given in US20090123940A1 (Johns Hopkins, published 2009).
Positions count from the first letter of the chain named. Each block holds one binder with its values, some of them ahead of it.

What was measured:
[1] = target: T1, native NPR of mouse brain (mouse, UniProt Q99J85 1-493); assay: co-IP from mouse brain lysate with a rabbit antibody to NP1; knockout lysates as controls
T1 sequence (looked up): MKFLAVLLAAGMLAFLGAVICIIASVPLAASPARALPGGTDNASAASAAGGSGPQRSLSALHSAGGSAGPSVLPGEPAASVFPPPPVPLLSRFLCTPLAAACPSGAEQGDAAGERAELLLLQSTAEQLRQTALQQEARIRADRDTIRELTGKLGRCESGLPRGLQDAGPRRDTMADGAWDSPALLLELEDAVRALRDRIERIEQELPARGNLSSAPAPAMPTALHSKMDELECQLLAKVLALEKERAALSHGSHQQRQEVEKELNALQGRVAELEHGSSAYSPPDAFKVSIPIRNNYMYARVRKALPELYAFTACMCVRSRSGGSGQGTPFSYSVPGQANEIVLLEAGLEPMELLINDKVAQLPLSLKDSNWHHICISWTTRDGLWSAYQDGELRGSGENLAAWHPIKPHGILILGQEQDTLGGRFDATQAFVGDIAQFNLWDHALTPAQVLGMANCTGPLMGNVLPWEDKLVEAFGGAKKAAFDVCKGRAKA
From the text: (§1) Narp and NP1 form highly organized homo- and hetero-multimer complexes that are covalently linked by N-terminal disulfide bonds (Xu et al., supra). Moreover, NPR and Narp formed heteromultimer complexes when coexpressed in HEK293T cells. Heteromultimer complex formation is dependent on the first and third cysteines of NPs that flank the first coiled-coil domain (Xu et al., supra). NPR was co-expressed with mutants of Narp, in which two or all three of the cysteines are mutated to serine. In mutant “Narp (C1, 2S),” the cysteines at positions 14 and […] were mutated to serines, and in mutant “Narp (C1, 2, 3S)” the cysteines at positions 14, 26, and 79 were mutated to serines. […] Thus, it appeared that NPR and Narp formed heterocomplexes that are stabilized by disulfide bonds. To examine NP complexes in brain, lysates from a control mouse were prepared and immunoprecipitated with rabbit antibody specific to NP1 or Narp. Lysates from knockout mice NP1 KO, Narp KO and combined NP1/Narp/NPR KO (NP TKO) were also utilized as controls. […] The ˜25 kDa band, presumptive NTF-NPR, also specifically co-IPed with both Narp and NP1. […] The pentraxin domain of Narp and NP1 is required for interaction with AMPAR.

[2] = target: metabotropic glutamate receptor mGluR5 (UniProt P31424 21-1203, limits assumed); assay: biochemical assays, not described further
Chain of metabotropic glutamate receptor mGluR5 (P31424 21-1203 limits assumed): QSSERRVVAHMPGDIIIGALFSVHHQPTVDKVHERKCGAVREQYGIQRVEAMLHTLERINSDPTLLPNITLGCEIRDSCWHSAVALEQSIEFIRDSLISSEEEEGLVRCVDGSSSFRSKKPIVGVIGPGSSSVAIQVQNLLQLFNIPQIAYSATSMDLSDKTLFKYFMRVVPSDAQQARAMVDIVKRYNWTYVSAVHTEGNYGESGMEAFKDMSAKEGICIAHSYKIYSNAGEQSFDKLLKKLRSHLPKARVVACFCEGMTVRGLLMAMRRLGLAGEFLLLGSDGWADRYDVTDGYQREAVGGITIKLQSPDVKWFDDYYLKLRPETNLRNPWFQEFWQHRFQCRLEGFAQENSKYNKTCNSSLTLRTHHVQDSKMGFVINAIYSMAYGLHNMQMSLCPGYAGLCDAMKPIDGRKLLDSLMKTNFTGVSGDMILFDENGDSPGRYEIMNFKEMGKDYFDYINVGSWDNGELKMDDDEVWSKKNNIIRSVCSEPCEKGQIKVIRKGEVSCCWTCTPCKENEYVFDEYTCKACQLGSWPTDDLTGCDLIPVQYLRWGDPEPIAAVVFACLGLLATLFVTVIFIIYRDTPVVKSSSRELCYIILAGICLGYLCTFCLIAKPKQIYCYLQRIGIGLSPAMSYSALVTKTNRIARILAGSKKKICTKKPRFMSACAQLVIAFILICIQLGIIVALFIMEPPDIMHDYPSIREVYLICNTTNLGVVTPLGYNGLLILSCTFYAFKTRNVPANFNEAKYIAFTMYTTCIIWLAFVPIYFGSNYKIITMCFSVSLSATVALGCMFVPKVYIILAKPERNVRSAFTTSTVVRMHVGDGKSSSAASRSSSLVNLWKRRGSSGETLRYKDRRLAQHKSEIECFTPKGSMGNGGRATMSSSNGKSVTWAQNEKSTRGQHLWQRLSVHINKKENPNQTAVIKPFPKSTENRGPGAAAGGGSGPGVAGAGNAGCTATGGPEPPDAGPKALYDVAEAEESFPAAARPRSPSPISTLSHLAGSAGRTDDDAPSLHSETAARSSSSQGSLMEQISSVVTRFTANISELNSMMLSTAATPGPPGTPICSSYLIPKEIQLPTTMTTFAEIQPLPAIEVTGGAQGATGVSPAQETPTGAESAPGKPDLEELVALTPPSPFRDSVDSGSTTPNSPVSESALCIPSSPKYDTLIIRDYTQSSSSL

[3] = target: T2, neuronal glutamate transporter EAAC1 (UniProt P51907 1-523); assay: co-clustering in co-transfected 293 cells, immunostaining
T2 construct: whole, on cells
T2 sequence (looked up): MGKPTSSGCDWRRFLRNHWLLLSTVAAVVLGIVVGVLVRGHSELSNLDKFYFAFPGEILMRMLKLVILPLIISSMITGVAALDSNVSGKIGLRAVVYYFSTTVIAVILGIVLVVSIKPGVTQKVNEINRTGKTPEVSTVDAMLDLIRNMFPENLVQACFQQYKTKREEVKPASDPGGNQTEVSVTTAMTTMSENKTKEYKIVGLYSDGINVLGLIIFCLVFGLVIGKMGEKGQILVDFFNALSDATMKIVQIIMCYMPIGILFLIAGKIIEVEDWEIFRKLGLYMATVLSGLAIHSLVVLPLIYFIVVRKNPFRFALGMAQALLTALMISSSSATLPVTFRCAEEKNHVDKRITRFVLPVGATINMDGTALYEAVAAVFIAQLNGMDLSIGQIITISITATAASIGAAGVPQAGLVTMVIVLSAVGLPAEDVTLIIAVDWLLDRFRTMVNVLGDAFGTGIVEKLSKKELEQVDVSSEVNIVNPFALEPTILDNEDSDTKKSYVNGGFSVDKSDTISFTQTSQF

[4] = target: T3, NMDA receptor subunit NR1 (UniProt P35439 19-938); assay: as above
T3 construct: whole, on cells

[5] = target: T4, kainate receptor subunit GluR6 (UniProt P42260 32-908, limits assumed); assay: as above
T4 construct: whole, on cells

[6] = target: T5, NMDA receptor subunits NR1 and NR2A (UniProt P35439 19-938; Q00959 23-1464); assay: as above
T5 construct: whole, on cells; Co-expressed in 293 cells; also called NR1/2A

[7] = target: T6, HA-GluR6 (GluR6 with an N-terminal HA tag) (UniProt P42260 32-908); assay: co-IP from co-transfected HEK 293T cells
T6 construct: mature; also called wildtype HA GluR6

[8] = target: T7, EC1 domain of GluR6 (display construct) (UniProt P42260 32-561, limits assumed); assay: co-clustering on transfected cells
T7 construct: domain: EC1 domain
T7 sequence (looked up): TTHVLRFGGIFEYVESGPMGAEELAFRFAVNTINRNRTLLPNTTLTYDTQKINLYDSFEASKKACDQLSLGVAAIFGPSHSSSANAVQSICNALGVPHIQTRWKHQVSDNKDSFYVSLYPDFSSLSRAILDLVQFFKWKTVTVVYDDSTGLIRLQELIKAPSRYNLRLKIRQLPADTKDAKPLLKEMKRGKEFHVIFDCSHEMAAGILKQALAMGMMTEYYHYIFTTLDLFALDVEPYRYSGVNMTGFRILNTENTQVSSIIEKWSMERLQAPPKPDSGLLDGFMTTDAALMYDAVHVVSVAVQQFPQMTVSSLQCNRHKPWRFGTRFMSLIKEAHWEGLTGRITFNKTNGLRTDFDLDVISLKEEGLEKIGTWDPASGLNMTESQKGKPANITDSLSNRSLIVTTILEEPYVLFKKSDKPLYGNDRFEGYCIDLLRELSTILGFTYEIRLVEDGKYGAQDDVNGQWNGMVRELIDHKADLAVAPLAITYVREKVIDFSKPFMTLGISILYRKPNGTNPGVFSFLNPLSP

[9] = target: T8, GluR6-HA (HA tagged GluR6 of Example 10) (UniProt P42260 32-908, limits assumed); assay: co-IP from co-transfected HEK293T cells
T8 construct: whole, on cells; not shown: HA tag
T8 sequence (P42260 32-908 limits assumed): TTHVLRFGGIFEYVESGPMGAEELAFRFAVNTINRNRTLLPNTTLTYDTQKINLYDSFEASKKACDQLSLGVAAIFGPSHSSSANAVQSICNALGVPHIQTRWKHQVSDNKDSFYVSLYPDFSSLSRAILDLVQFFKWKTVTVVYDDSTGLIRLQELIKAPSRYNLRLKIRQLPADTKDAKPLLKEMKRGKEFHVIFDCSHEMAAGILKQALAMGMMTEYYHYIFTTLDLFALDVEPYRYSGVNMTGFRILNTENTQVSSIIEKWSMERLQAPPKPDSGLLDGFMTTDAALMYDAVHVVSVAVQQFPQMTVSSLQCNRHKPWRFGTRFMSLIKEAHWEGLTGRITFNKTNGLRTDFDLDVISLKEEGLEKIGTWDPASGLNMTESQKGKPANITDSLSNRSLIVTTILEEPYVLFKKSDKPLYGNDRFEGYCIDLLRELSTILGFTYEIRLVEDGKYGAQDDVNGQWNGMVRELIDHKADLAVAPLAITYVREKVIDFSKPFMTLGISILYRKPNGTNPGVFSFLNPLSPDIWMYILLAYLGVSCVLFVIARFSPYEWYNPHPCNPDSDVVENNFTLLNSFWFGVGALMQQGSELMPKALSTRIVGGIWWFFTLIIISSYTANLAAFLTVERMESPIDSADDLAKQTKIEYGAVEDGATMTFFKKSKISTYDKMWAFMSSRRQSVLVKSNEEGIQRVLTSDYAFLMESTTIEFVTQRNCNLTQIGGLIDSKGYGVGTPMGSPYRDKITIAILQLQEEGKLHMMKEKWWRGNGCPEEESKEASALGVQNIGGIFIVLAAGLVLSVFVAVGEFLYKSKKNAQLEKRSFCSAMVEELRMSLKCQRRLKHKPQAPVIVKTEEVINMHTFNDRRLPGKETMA
From the text: as §1
(§2) To determine if NPR would interact with AMPAR, AMPAR subunits from GluR1 or GluR6 were HA tagged (GluR1-HA and GluR6-HA, respectively) were co-transfected with myc-tagged Narp (Narp-myc) or NPR(NPR-myc) into HEK293T cells. Lysates were assayed for co-immunoprecipitation. […] Similarly, GluR1-HA but not GluR6-HA co-IPed with NPR-myc.

[10] = target: T9, neuronal pentraxin receptor (NPR), full length, rat (rat, UniProt O35764 1-494); assay: co-IP from co-transfected HEK293T cells
T9 construct: whole, on cells; Stands for NPR expressed in HEK293T cells and for native NPR of rat brain extracts; also called full-length NPR; wtNPR
T9 sequence (looked up): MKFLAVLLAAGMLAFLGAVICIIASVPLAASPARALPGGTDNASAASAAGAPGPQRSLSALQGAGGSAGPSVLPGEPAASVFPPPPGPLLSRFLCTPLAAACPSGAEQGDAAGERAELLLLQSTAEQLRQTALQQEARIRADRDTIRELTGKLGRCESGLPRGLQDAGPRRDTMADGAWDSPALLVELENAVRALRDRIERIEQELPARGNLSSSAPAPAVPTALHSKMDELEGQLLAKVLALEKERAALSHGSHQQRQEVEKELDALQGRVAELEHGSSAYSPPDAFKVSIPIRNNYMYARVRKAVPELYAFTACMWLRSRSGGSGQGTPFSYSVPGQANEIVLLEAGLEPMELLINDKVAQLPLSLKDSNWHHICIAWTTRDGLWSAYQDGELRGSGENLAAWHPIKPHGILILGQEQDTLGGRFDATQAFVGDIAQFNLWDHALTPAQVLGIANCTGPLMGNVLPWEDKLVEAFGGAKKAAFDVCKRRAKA
From the text: as §1, §2

[11] = target: T1, native NPR of mouse brain; assay: co-IP from mouse brain lysate with a rabbit antibody to Narp; knockout lysates as controls
From the text: as §1

binding result [2]: no binding
binding result [3]: no binding
binding result [4]: no binding
binding result [5]: no binding
binding result [6]: no binding
binding result [7]: no binding
binding result [8]: no binding
B2: Neuronal activity regulated pentraxin (Narp) (ligand)
chain: QAQDNPIPGSRFVCTALPPEAARAGCPLPAMPMQGGALSPEEELRAAVLHWRETVVQQKETLGAQREAIRELTSKLARCEGLAGGKARGTGATGKDTMGDLPRDPGHVVEQLSRSLQTLKDRLESLELQLHTNASNAGLPSDFREVLQRRLGELERQLLRKVAELEDEKSLLHNETSAHRQKTENTLNALLQRVTELERGNSAFKSPDAFKVSLPLRTNYLYGKIKKTLPELYAFTICLWLRSSASPGIGTPFSYAVPGQANEIVLIEWGNNPIELLINDKVAQLPLFVSDGKWHHICITWTTRDGMWEAFQDGEKLGTGENLAPWHPIKPGGVLILGQEQDTVGGRFDATQAFVGELSQFNIWDRVLRAQEIINIANCSTNMPGNIIPWVDNNVDVFGGASKWPVETCEERLLDL
notes: Secreted, glycosylated, disulfide-linked multimer (>220 kDa on non-reducing gels); The signal peptide is called putative; also called neuronal pentraxin 2; untagged Narp

binding result [9]: no binding
B3: C-terminal myc-tagged version of Narp (myc-Narp) (ligand)
chain: B2 chain
notes: also called myc-tagged Narp; myc-tagged full length Narp; not shown: C-terminal myc tag

binding result [10]: no binding
B4: Narp (C1, 3S)-myc, Narp mutant in which cysteines 14 and 79 are mutated to serines (ligand)
chain: B2 chain with C14S, C79S
notes: also called Narp (C1, 2S); mutant Narp; not shown: C-terminal myc tag

The remaining lines, values behind:

B1: native neuronal pentraxin 1 (NP1) of mouse brain (ligand, UniProt Q62443 23-432, looked up)
chain: QDFGPTRFICTSVPVDADMCAASVAAGGAEELRSNVLQLRETVLQQKETILSQKETIRELTTKLGRCESQSTLDSGPGEARSGGGRKQPGSGKNTMGDLSRTPAAETLSQLGQTLQSLKTRLENLEQYSRLNSSSQTNSLKDLLQSKIDDLERQVLSRVNTLEEGKGGPKNDTEERAKIESALTSLHQRISELEKGQKDNRPGDKFQLTFPLRTNYMYAKVKKSLPEMYAFTVCMWLKSSAAPGVGTPFSYAVPGQANELVLIEWGNNPMEILINDKVAKLPFVINDGKWHHICVTWTTRDGVWEAYQDGTQGGNGENLAPYHPIKPQGVLVLGQEQDTLGGGFDATQAFVGELAHFNIWDRKLTPGEVYNLATCSSKALSGNVIAWAESQIEIFGGATKWTFEACRQIN
binding result [1]: binds

B5: Narp (C1, 2, 3S)-myc, Narp mutant in which cysteines 14, 26, and 79 are mutated to serines (ligand)
chain: B2 chain with C14S, C26S, C79S
notes: also called mutant Narp; not shown: C-terminal myc tag
binding result [10]: no binding

B6: native Narp of mouse brain (ligand, UniProt O70340 15-429, looked up)
chain: AGRAQDSPIPGSRFVCTALPPEAARAGCPLPAMPMQGGALSPEEELRAAVLQLRETVVQQKETLGAQREAIRELTGKLARCEGLAGGKARGTGKDTMGDLPRDPGHVVEQLSRSLQTLKDRLESLELQLRTNVSNAGLPSDFREVLQRRLGELERQLLRKVAELEDEKSLLHNETSAHRQKTESTLNALLQRVTELERGNSAFKSPDAFKVSLPLRTNYLYGKIKKTLPELYAFTICLWLRSSASPGIGTPFSYAVPGQANEIVLIEWGNNPIELLINDKVAQLPLFVSDGKWHHICITWTTRDGMWEAFQDGEKLGTGENLAPWHPIKPGGVLILGQEQDTVGGRFDATQAFVGELSQFNIWDRVLRAQEIINIANCSTNMPGNIIPWVDNNVDVFGGASKWPVETCEERLLDL
binding result [11]: binds
